According to PMC9318713, “Exploring the Utility of ssDNA Aptamers Directed against Snake Venom Toxins as New Therapeutics for Snakebite Envenoming”:

Key:
[1] = biological target: T1, ancrod (recombinant SVSP) (Calloselasma rhodostoma? (printed C. …, UniProt P26324 1-234)); assay: fluorescence bead binding assay; 2 mM Mg2+; Kd: 50 mM Tris-HCl pH 7.5, 150 mM NaCl, 2 mM MgCl2, RT, 1 h, toxin on Sepharose beads; ALISA: 100 ng toxin coated, aptamer in nuclease-free water, RT, 2 h, PBST; details: protein: recombinant; label: 6-FAM (Kd); HRP (ALISA)
T1 sequence: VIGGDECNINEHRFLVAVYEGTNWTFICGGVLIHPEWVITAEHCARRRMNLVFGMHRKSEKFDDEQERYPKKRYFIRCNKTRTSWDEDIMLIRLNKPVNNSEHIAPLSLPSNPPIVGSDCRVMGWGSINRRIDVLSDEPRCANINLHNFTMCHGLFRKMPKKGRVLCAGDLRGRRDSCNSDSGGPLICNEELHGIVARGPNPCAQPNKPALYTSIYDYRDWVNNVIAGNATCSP

[2] = biological target: T2, batroxobin (recombinant SVSP) (Bothrops atrox? (printed B. atrox), UniProt P04971 25-255); assay: fluorescence bead binding assay; details: protein: recombinant; label: 6-FAM
[3] = biological target: T2, batroxobin (recombinant SVSP); assay: fluorescence bead binding assay; 2 mM Mg2+; details: protein: recombinant; label: 6-FAM (Kd); HRP (ALISA)
[4] = biological target: T1, ancrod (recombinant SVSP); assay: fluorescence bead binding assay; 2 mM Mg2+; Kd only in figure, within 3.0-17.8 nM; Kd: 50 mM Tris-HCl pH 7.5, 150 mM NaCl, 2 mM MgCl2, RT, 1 h, toxin on Sepharose beads; ALISA: 100 ng toxin coated, aptamer in nuclease-free water, RT, 2 h, PBST; details: protein: recombinant; label: 6-FAM

T2 sequence (P04971 25-255): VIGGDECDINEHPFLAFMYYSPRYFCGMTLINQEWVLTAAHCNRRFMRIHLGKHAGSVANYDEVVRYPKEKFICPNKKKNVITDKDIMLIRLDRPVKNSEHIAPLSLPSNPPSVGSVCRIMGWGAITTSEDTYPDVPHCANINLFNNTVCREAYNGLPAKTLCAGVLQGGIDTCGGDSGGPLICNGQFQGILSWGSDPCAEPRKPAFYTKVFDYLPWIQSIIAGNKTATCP

Row | Binder | binding result [2] | binding result [4] | other results
1 | GGACCGACCCTTTAGCATTTATGACCCTTGTCATCGGGCT (ssDNA) [ancrod-55] |  |  | Kd [1]: 3 nM
2 | TAGTAACAGGTCTGCTTAGGCTTGCGAGGAGTACTAGTAT (ssDNA) [batroxobin-5] | binds |  | 
3 | TGTCTGGTATGCAAAGGACTGCTGTACTGTTAGCTTTTGT (ssDNA) [batroxobin-26] |  |  | Kd [3]: 4.7 nM
4 | TAGCATGGGTGGTCAATTTAAGTACAGTGTCGTGCTCACT (ssDNA) [ancrod-7] |  | binds | 
5 | AGGTCCTATTGTATACAGGGAGCCCTCGGTCTTGCTGTGA (ssDNA) [batroxobin-29] | binds |  | 
6 | TGGTCTAAGGACTGCTTAGGATTGCGATATGGTCCAGATG (ssDNA) [ancrod-11] |  | binds | 
